Measurements reported in publication PMC2878840.

What was measured:
[1] = anti-CNX Western blot normalised to actin; conditions: glycan lost; control: mock-transfected cells
[2] = Western blot normalised to ZO-1 or claudin-1; conditions: glycan lost; control: wild type E-cadherin (E-cad-myc)
[3] = TER of confluent monolayers on Transwells; conditions: glycan lost; control: wild type E-cadherin (E-cad-myc)
[4] = confocal immunofluorescence, x-z sections; conditions: glycan lost; control: wild type E-cadherin
[5] = ZO-1 immunoprecipitation, Western blot; conditions: glycan lost; control: wild type E-cadherin (E-cad-myc)

B1: E-cadherin: V13 (protein)
parent chain: MGPWSRSLSALLLLLQVSSWLCQEPEPCHPGFDAESYTFTVPRRHLERGRVLGRVNFEDCTGRQRTAYFSLDTRFKVGTDGVITVKRPLRFHNPQIHFLVYAWDSTYRKFSTKVTLNTVGHHHRPPPHQASVSGIQAELLTFPNSSPGLRRQKRDWVIPPISCPENEKGPFPKNLVQIKSNKDKEGKVFYSITGQGADTPPVGVFIIERETGWLKVTEPLDRERIATYTLFSHAVSSNGNAVEDPMEILITVTDQNDNKPEFTQEVFKGSVMEGALPGTSVMEVTATDADDDVNTYNAAIAYTILSQDPELPDKNMFTINRNTGVISVVTTGLDRESFPTYTLVVQAADLQGEGLSTTATAVITVTDTNDNPPIFNPTTYKGQVPENEANVVITTLKVTDADAPNTPAWEAVYTILNDDGGQFVVTTNPVNNDGILKTAKGLDFEAKQQYILHVAVTNVVPFEVSLTTSTATVTVDVLDVNEAPIFVPPEKRVEVSEDFGVGQEITSYTAQEPDTFMEQKITYRIWRDTANWLEINPDTGAISTRAELDREDFEHVKNSTYTALIIATDNGSPVATGTGTLLLILSDVNDNAPIPEPRTIFFCERNPKPQVINIIDADLPPNTSPFTAELTHGASANWTIQYNDPTQESIILKPKMALEVGDYKINLKLMDNQNKDQVTTLEVSVCDCEGAAGVCRKAQPVEAGLQIPAILGILGGILALLILILLLLLFLRRRAVVKEPLLPPEDDTRDNVYYYDEEGGGEEDQDFDLSQLHRGLDARPEVTRNDVAPTLMSVPRYLPRPANPDEIGNFIDENLKAADTDPTAPPYDSLLVFDYEGSGSEAASLSSLNSSESDKDQDYDYLNEWGNRFKKLADMYGGGEDD
other: calnexin expression (UPR marker) [1]: no change | other: Ser-phosphorylation of ZO-1 and claudin-1 [2]: increases | other: transepithelial resistance [3]: increases | other: apical localisation of gp135 and ZO-1 [4]: increases | other: claudin-1 in ZO-1 complexes [5]: increases
